From patent publication US20210253648A1

Target: HLA-A2 MHC class I molecule on the surface of the target cells (no C2 peptide added) (human)

TCR CMV-pp65-PE STAR multimer reagent (Soluble T-Cell Antigen Receptor STAR Multimer, Altor Bioscience)
Percentage of Positive Cells: 0.96%
iMFI: 70 RFU
